Source: patent publication CN113150127A

Molecular target: HBV表面抗原蛋白 (HBsAg) (Hepatitis B virus)
Experiment: SPR (Biacore 3000), antibody captured through AHC on a CM5 chip, HBsAg as analyte from 40 nM to 0 nM in 2-fold dilutions

Kd: 6.12 nM
B1: 抗HBsAg单克隆抗体5G7-2 (antibody, V domains shown)
VH: EVQLQQSGPELVKPGASVKIYCKASGYTFTNARSTWVKQSHGKSLEWIGWINFKINNDGSATPFKGKATLTVDKSSSTAYMELRSLTSEDSAVYYCSRAGRFKLMDWGQGTLVTVSA
VL: DIVMTQSPASLAMSLGKRATISCGGCARTPLLWICNGKWYQQKPGQPPKLLIYLASNKFGGVPARFSGSGSGADFTLTIDPVEGDDVALYYCQQDWNTIYTFGGGTKMEIK
